Test results reported in patent US20120114630.

Molecular target: recombinant staphylokinase SAK-SY162

B1: microplasminogen variant Lys137Met (K137M) (protein)
chain: APSFDCGKPQVEPKKCPGRVVGGCVAHPHSWPWQVSLRTRFGMHFCGGTLISPEWVLTAAHCLEKSPRPSSYKVILGAHQEVNLEPHVQEIEVSRLFLEPTRKDIALLKLSSPAVITDKVIPACLPSPNYVVADRTECFITGWGETQGTFGAGLLMEAQLPVIENKVCNRYEFLNGRVQSTELCAGHLAGGTDSCQGDSGGPLVCFEKDKYILQGVTSWGLGCARPNKPGVYVRVSRFVTWIEGVMRNN
- conversion of inactive microplasminogen into active microplasmin, HPLC profile 10 min after addition of staphylokinase: ~85%
